For orientation: EC50 (read off the curve) means the concentration that produces a half-maximal response. A word on the EC50: it is the concentration needed to bring the measured effect to its halfway point.

For experiment [1], the target named is Fc gamma receptor CD16a F variant (human) (UniProt P08637). In words: ELISA, plate coated with recombinant huCD16a (F variant), detection with peroxidase anti-human IgG F(ab')2, OD 450 nm - 630 nm. In general terms: An ELISA detects its analyte on a solid surface through an enzyme-linked reagent.
Experiment [2] concerns the target cynomolgus monkey Dectin-1 (cynomolgus monkey). Kind of experiment: flow cytometry on cynomolgus monkey monocytes. For orientation: In flow cytometry, cells or beads pass a laser one at a time.
The target in experiment [3] is human Dectin-1 isoform B (human) (UniProt Q9BXN2). In words: flow cytometry on HEK-Blue hDectin-1b cells.
For experiment [4], the target named is cynomolgus monkey Dectin-1 (cynomolgus monkey). Kind of experiment: flow cytometry, cynomolgus monkey monocytes.
In experiment [5] the target is human Dectin-1 isoform A (human) (UniProt Q9BXN2). In words: flow cytometry on HEK-Blue hDectin-1a cells.
In experiment [6] the target is human Dectin-1 (isoform not given) (human) (UniProt Q9BXN2). Kind of experiment: flow cytometry on human monocytes.
For experiment [7], the target named is human Dectin-1 isoform A (human) (UniProt Q9BXN2). In words: flow cytometry on HEK293F hDectin-1a FL cells.

Chain of human Dectin-1 isoform A (human) (Q9BXN2 whole entry, canonical isoform): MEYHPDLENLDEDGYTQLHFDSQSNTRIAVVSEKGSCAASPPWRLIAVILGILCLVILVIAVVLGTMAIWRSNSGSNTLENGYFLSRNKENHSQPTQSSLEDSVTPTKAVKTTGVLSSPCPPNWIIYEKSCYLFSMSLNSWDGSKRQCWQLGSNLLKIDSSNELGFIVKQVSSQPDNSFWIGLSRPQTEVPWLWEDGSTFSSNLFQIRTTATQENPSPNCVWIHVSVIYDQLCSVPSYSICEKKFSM
Chain of cynomolgus monkey Dectin-1 (cynomolgus monkey) (chain, as listed by the source): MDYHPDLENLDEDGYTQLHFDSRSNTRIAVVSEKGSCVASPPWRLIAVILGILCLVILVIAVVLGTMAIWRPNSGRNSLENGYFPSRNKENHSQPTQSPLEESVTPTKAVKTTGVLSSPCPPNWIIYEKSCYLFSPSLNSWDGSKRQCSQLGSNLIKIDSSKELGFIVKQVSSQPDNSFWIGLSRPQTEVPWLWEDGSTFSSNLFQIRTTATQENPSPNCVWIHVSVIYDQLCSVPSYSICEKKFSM
Chain of human Dectin-1 isoform B (human) (Q9BXN2 other isoform, or with tags, fused parts or gaps): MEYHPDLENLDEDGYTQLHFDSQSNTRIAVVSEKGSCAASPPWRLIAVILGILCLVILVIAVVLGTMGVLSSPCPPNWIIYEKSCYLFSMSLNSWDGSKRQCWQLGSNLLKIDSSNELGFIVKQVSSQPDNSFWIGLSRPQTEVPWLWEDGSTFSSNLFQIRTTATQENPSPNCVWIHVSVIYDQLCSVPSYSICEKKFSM
Chain of human Dectin-1 (isoform not given) (human) (Q9BXN2 whole entry, canonical isoform): as the sequence (Q9BXN2 whole entry, canonical isoform) above
Chain of Fc gamma receptor CD16a F variant (human) (P08637 17-208 limits assumed, change not shown): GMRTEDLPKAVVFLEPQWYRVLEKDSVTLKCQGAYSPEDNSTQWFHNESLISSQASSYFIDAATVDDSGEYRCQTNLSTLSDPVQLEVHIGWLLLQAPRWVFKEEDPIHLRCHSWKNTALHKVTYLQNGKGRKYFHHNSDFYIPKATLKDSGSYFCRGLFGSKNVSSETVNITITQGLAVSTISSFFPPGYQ

Control (antibody): in experiment [1], the EC50 (read off the curve) stood at 0.07 mg/L.

With “commercial anti-Dectin-1 antibody 259931”, the EC50 came out at 16.5 nM in experiment [2]; 0.9 nM in experiment [3]; 16 nM in experiment [4]; 0.8 nM in experiment [5]; 0.3 nM in experiment [6]; 1.2 nM in experiment [7].

For commercial anti-Dectin-1 antibody GE2, the EC50 in experiment [3] worked out at 12 nM; in experiment [5] it was 1.9 nM; in experiment [6] it was 1.4 nM; in experiment [7], 2.4 nM.

(Values after patent publication US20250129168A1.)
